This note sets out measurements from patent publication US6673354B2, “Compositions and methods for treating papillomavirus-infected cells” (priority 1998, dated 2004).

Experiment [1] concerns the target T1, EE-EIC (epitope tagged carboxy terminal domain of HPV16 E1) (human papillomavirus type 16, UniProt P03114 424-649).
T1 construct: range 424-649; limits uncertain; also called HPV-16 EE-EIC; EE-E1C
T1 sequence: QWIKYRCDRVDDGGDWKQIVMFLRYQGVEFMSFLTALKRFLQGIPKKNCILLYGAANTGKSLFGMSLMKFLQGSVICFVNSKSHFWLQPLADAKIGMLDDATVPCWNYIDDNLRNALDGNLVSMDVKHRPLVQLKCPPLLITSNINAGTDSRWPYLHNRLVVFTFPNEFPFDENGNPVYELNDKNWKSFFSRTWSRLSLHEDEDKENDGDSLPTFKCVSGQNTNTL
Put plainly: in vitro E1-E2 competition binding assay with EE-EIC, 10-40 µM peptide, FIG. 14.

In experiment [2] the target is T2, HPV11 EE-E1 (epitope tagged HPV11 E1) (human papillomavirus type 11, UniProt P04014 1-649).
T2 sequence: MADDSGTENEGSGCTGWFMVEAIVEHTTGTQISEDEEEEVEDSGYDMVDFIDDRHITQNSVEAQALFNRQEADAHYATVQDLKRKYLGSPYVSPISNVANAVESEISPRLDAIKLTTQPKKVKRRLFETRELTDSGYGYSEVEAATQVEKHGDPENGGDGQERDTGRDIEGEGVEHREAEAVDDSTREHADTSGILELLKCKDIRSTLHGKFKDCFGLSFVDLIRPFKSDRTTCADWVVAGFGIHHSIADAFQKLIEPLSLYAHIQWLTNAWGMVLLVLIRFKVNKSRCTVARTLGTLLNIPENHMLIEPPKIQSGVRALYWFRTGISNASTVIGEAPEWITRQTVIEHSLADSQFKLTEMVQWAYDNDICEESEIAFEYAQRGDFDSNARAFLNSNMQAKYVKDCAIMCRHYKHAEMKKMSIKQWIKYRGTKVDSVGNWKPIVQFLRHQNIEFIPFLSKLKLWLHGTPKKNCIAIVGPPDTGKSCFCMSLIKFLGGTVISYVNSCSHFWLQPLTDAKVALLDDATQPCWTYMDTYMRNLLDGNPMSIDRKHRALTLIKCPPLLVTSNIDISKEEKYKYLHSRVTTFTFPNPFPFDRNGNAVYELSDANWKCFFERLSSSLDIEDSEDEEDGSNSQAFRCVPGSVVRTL
Briefly: co-immunoprecipitation with anti-EE antibody, Western blot for E2.

The target in experiment [3] is T3, epitope tagged full length HPV16 E1 (EE16-E1) (human papillomavirus type 16, UniProt P03114 1-649).
T3 construct: range 1-649; also called EE-E1; HPV16 EE-E1
T3 sequence: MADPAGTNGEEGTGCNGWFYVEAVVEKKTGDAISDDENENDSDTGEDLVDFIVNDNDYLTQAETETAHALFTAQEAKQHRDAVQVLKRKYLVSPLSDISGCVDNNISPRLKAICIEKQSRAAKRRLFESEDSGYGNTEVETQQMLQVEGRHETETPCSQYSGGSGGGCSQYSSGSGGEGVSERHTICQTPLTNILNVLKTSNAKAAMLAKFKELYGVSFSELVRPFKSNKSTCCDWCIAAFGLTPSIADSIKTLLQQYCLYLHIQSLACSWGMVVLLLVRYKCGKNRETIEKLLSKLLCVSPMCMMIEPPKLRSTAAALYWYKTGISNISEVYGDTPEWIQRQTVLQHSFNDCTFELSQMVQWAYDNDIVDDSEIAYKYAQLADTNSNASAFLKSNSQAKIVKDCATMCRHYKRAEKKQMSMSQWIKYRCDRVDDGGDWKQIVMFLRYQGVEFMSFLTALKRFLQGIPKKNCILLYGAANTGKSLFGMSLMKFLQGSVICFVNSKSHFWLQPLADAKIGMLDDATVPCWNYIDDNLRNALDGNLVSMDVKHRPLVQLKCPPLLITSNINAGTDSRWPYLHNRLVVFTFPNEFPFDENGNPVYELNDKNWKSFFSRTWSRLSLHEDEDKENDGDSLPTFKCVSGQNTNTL
Briefly: inhibition of HPV16 E1-E2 co-immunoprecipitation by peptide; competitor HPV16 E2.

B1: Ant-WP (Drosophila Antennapedia aa 42-58, Gly-Gly spacer, WP15) (peptide)
peptide: ERQIKIWFQNRRMKWKKGGWKHMRLECAIYYKAR
notes: also called Antennapedia fusion peptide
Take B1: in experiment [1], the binding result is “binds”.

B2: HPV16 E2 E39A mutant (other)
chain: METLCQRLNVCQDKILTHYENDSTDLRDHIDYWKHMRLACAIYYKAREMGFKHINHQVVPTLAVSKNKALQAIELQLTLETIYNSQYSNEKWTLQDVSLEVYLTAPTGCIKKHGYTVEVQFDGDICNTMHYTNWTHIYICEEASVTVVEGQVDYYGLYYVHEGIRTYFVQFKDDAEKYSKNKVWEVHAGGQVILCPTSVFSSNEVSSPEIIRQHLANHPAATHTKAVALGTEETQTTIQRPRSEPDTGNPCHTTKLLHRDSVDSAPILTAFNSSHKGRINCNSNTTPIVHLKGDANTLKCLRYRFKKHCTLYTAVSSTWHWTGHNVKHKSAIVTLTYDSEWQRDQFLSQVKIPKTITVSTGFMSI
notes: also called E39A replication defective HPV16 E2 mutant
For B2, the binding result in experiment [2] is listed as “no binding”.

B3: E2N-WP15 (peptide of HPV16 E2 residues 33-47) (peptide)
peptide: WKHMRLECAIYYKAR
notes: also called 15-mer; wild-type peptide
Consider B3, for which the IC50 in experiment [3] was found to be 7.5 µM.

B4: E2N-WP23 (peptide of HPV16 E2 amino acids 29-51) (peptide)
peptide: HIDYWKHMRLECAIYYKAREMGF
notes: also called 23-mer
Turning to B4, the IC50 in experiment [3] stood at 5 µM.

One may read the IC50 as the concentration that gives 50% inhibition. A high value points to weaker potency in that assay.
